For experiment [1], the target named is cynomolgus monkey NKp46 (full length, on cells) (cynomolgus monkey) (UniProt Q95JB9). Nature of the experiment: flow cytometry on cynomolgus monkey NKp46-CHOK1 cells.
In experiment [2] the target is T1, human NKp46 (full length, on cells) (human, UniProt O76036 22-304). Put plainly: flow cytometry on human NKp46-CHOK1 cells. The protocol:
(§1) The stable human NKp46-CHOK1 and cynomolgus monkey NKp46-CHOK1 cell lines obtained in Example 2 were cultured, the cells were digested with 0.25% pancreatic enzyme EDTA for about 5 minutes, and the digestion was terminated with the complete medium. After centrifugation at 1,500 rpm for 5 minutes, the supernatant was discarded, the precipitated cells were resuspended with PBS containing 1% BSA and counted. The cell density was adjusted to 1E6/mL and seeded in a corning-3799 96-well culture plate at 100 μL/well. Aftering centrifuging at 1,500 rpm for 5 minutes, the supernatant was discarded and the precipitate was set aside at 4° C. The antibody solutions were prepared with PBS containing 1% BSA, wherein the antibody solution has an initial concentration was 100 nM, then diluted in 10-fold to obtain 7 gradients: 10⁻⁴ nM, 10⁻³ nM, 10⁻² nM, 10⁻¹ nM, […], and 10² nM. The prepared antibody solutions were used to resuspend the cells, 100 μL/well. The resuspended cell culture plates were incubated in a 4° C. freezer for 1 h. After centrifugation at 1500 rpm for 5 minutes, the supernatant was discarded. The precipitate was washed with 160 μL of PBS containing 1% BSA, the supernatant was discarded, and the cells were stored for later use.
(§2) The Secondary antibody (goat anti human IgG Fc PE) solution was prepared with PBS containing 1% BSA, and diluted 1:200. The cells were resuspended with the prepared secondary antibody solution, 100 μL/well, incubated in a 4° C. freezer for 0.5 h. After centrifugation at 1,500 rpm for 5 minutes, the supernatant was discarded, the precipitated cells were washed with 160 μL of PBS containing 1% BSA, the supernatant was discarded, the cells were resuspended with 100 μL of PBS containing 1% BSA, and filtered in 300-mesh gauze. The mean fluorescence intensity of antibody binding to cells was then analyzed on a flow cytometer. The FCS file was exported from the flow cytometer, the mean fluorescence intensity (hereinafter referred to as MFI) of PE channel was analyzed with Flowjo software, and the mean fluorescence intensity obtained was introduced into the Graphpad to analyze the half binding concentration (hereinafter referred to as EC₅₀) and the top mean fluorescence intensity (Top MFI) of the antibody and the cell.
On the technique in general: Flow cytometry measures light scatter and fluorescence of single cells or particles in a stream.

The target in experiment [3] is cynomolgus monkey NKp46 (full length, on cells) (cynomolgus monkey) (UniProt Q95JB9). Nature of the experiment: flow cytometry on cynomolgus monkey NKp46-CHOK1 cells. This is another data set of the same source.
Experiment [4] concerns the target T2, cynomolgus monkey NKp46 (full length, on cells) (cynomolgus monkey, UniProt Q95JB9 22-306).
T2 construct: also called cynomolgus monkey NKp46-CHOK1; cynomolgus NKp46-CHOK1
Described as above. The procedure:
as §1, §2

Experiment [5] has as its target T3, Cynomolgus monkey NKp46 for immunization, screening, and testing (Kactus, NKP-CM146) (cynomolgus monkey, UniProt Q95JB9 22-254).
T3 construct: Bought protein; also called monkey NKp46 antigen protein; cynomolgus monkey NKp46 antigen
Nature of the experiment: SPR (Biacore 8K), antibody captured on anti-human Fc, NKp46 as analyte, 1:1 fit. The protocol: Cynomolgus monkey NKp46 was diluted in two-fold to a serial concentration (400 nM-3.125 nM), combined for 90 s at a flow rate of 50 μL/min and dissociated for 500 s.
(§3) At the end of each round of experiments, 3 M MgCl₂ solution was used to rinse at a flow rate of 30 μL/min for 30 s, and the captured antibody was removed along with the antigen to complete the regeneration of the chip. The raw data were analyzed using Biacore Insight Evaluation Software (version 3.0.12.15655) software and (1:1) Langmuir model was fit to the data. Compared with the anti-NKp46 humanized antibody and the corresponding chimeric antibody, the affinity to the human NKp46 antigen protein is mostly maintained.
On the technique in general: SPR reads the build-up and loss of mass on a sensor chip optically.

The target of experiment [6] is T1, human NKp46 (full length, on cells). Put plainly: cell-based or functional assay.
In experiment [7] the target is T4, Human NKp46 antigen for immunization, screening, and testing (Kactus, NKP-HM146) (human, UniProt O76036 22-255).
T4 construct: Bought protein; also called human NKp46 antigen protein; human NKp46 protein
T4 sequence (O76036 other isoform, or with tags, fused parts or gaps limits assumed): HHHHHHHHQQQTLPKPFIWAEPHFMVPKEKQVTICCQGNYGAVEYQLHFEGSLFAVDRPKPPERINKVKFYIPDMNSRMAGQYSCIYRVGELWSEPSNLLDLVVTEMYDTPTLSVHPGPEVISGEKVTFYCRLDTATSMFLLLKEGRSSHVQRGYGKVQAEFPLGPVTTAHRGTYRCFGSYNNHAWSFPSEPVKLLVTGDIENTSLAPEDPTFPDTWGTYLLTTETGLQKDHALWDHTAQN
Put plainly: SPR (Biacore 8K), antibody captured on anti-human Fc, NKp46 as analyte, 1:1 fit. The protocol:
Human NKp46 was diluted in two-fold to a serial concentration (400 nM-3.125 nM), then combined for 90 s at a flow rate of 50 μL/min, and dissociated for 500 s.
as §3

These results are taken from patent US20240141038A1 (SHANGHAI QILU PHARMACEUTICAL RESEARCH AND DEVELOPMENT CENTRE, published 2024).

Like-named read-outs stand apart in the source and are kept apart here.

T2 sequence (Q95JB9 22-306): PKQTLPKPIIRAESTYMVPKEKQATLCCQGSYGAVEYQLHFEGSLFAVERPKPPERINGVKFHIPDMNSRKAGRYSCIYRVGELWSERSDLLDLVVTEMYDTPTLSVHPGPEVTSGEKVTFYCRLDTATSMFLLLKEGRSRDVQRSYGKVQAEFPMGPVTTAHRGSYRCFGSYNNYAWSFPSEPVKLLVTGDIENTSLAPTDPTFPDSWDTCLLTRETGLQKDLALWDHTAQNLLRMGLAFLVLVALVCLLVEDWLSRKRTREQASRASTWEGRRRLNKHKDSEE
T3 sequence (Q95JB9 other isoform, or with tags, fused parts or gaps limits assumed): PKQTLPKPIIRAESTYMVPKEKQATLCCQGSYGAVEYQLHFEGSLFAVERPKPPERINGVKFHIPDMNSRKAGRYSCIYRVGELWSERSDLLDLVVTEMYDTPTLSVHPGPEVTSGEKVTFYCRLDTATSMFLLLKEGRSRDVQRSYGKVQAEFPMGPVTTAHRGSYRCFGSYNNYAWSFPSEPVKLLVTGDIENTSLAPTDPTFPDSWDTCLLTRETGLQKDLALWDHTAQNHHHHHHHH
T1 sequence (O76036 22-304 Q82K): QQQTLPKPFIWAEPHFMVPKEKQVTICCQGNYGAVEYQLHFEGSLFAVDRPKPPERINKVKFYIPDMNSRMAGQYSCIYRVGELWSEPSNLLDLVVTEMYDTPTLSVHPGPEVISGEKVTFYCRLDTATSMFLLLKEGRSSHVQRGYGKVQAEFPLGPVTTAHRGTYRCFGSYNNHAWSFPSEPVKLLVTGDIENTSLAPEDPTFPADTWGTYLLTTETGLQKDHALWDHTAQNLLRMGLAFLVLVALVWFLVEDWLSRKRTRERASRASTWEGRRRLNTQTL
Chain of cynomolgus monkey NKp46 (full length, on cells) (cynomolgus monkey) (Q95JB9 22-306): as the sequence (Q95JB9 22-306) above

With “Anti-HEL human IgG1 LALA (Biointron, Cat. number B109802) (antibody)”, the Top MFI amounted to 118 in experiment [1], 223 in experiment [2], 98 in experiment [2] (record 2) and 86 in experiment [3].

B1: H2-PA31 humanized antibody (antibody, human IgG1, V domains shown)
VH: EVQLVESGGGLVQPGGSLRLSCAVSGRTFSRLPMGWFRQAPGKGLEFVAAISWSSSTTYYADSVKGRFTISRDNSKNTAYLQMNSLRAEDTAVYYCAAVGGSLDYSATVVYTAARAYADWGQGTLVTVSS
notes: not shown: constant region of human IgG1
The EC50 is the concentration needed to bring the measured effect to its halfway point. The Kd is the constant that tells how readily two partners part at equilibrium. Broadly, the koff is a measure of how fast the partners let go of each other. In general, kon refers to the rate constant with which the complex forms. Regarding B1, in experiment [4], the midpoint of the response, the EC50, lay at 2.11 nM and the “Top MFI” value is 3270. In experiment [5], this molecule registered a Kd of 7.69 nM, a dissociation rate constant (koff) of 0.000596 s⁻¹ and an on-rate constant (kon) of 77500 M⁻¹ s⁻¹. In experiment [6], the “EC50 of NK cell activation (CD107a-positive NK cells, plate-coated antibody)” value is 0.63 nM and the “Top mean fluorescence intensity (Top MFI), NK cell activation (CD107a)” value is 35.3. In experiment [7], the Kd amounted to 10.9 nM, the off-rate (koff) stood at 0.000959 s⁻¹ and the on-rate (kon) is 87800 M⁻¹ s⁻¹. For the same molecule, in experiment [2], the EC50 was 0.203 nM and the “Top MFI” value was determined as 5940.

B2: H2-PA45 humanized antibody (antibody, V domains shown)
VH: EVQLVESGGGLVQPGGSLRLSCAASGRTFSRLPMAWFRQAPGKGLEFVAAISWSGGSTYYADSMKGRFTISRDNSKNTAYLQMNSLRAEDTAVYYCAAVGDSAPYSATIVYTDARAYAYWGQGTLVTVSS
notes: as for B1
With B2, in experiment [4], the EC50 was found to be 2.76 nM and the “Top MFI” value was found to be 3590. In experiment [5], this molecule came in with a Kd of 7.34 nM, a koff of 0.000563 s⁻¹ and a kon of 76700 M⁻¹ s⁻¹. For the same molecule, in experiment [6], the “EC50 of NK cell activation (CD107a-positive NK cells, plate-coated antibody)” value worked out at 0.75 nM and the “Top mean fluorescence intensity (Top MFI), NK cell activation (CD107a)” value came out at 39.1. Also, in experiment [7], the Kd came to 24.1 nM, the koff is 0.00154 s⁻¹ and the kon stood at 63800 M⁻¹ s⁻¹. In experiment [2], the response was half-maximal at 0.274 nM (EC50) and the “Top MFI” value turned out to be 5610.
